Results reported in patent publication US20170183396A1 (published 2017).

T1: ZEBOV GP (Zaire ebolavirus, UniProt Q05320 33-650)
T1 sequence: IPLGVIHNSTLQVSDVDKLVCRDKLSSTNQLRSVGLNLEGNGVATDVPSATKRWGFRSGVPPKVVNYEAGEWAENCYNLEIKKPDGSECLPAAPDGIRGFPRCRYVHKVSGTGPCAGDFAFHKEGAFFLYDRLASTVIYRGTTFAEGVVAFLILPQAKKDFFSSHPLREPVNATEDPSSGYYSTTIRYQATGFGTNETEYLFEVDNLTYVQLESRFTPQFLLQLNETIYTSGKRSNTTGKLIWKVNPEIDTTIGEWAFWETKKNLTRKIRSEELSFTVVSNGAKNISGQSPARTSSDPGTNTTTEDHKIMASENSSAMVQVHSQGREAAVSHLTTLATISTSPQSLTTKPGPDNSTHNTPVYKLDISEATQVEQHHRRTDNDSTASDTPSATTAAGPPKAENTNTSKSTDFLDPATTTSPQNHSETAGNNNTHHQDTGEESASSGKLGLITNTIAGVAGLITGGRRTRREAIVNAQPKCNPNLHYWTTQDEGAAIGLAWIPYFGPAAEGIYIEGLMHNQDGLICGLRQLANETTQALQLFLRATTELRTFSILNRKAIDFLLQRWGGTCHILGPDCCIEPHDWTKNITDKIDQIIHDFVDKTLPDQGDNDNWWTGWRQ


Columns and labels:
[1] = biological target: ZEBOV GP (Zaire ebolavirus) (UniProt Q05320); assay: affinity for recombinant ZEBOV GP; method not described
ZEBOV GP = biological target: T1, ZEBOV GP; assay: as above

Molecule	Kd [1]	Kd (ZEBOV GP)
USAMRIID mAb 13F6 (antibody)	0.33 nM	
CAN9G1 monoclonal antibody (antibody, V domains shown) VH: ERQLVESGGGVVKPGESLKLSCAASGFAFSSYDMSWVRQTPEKRLEWVAYSSRGGGFTYYPDTVKGRFTIARDNAKNTLHLQMSSLKSEDTAMYYCATHYYGPLYAMDYWGQGTSVTVSS VL: QLVLTQSSSASFSLGASAKLTCTLSSQHSTFTIEWYQQQPLKAPKYVMELKKDGSHSTGDGIPDRFSGSSSGADRYLWISNIQPEDEAMYICGVGDTIKEQFVYVFGGGTKVTVL		0.27 nM
